The values below come from the DeepSol protein solubility set.

A short description of this data set: soluble on expression in E. coli; label from the status in PepcDB or PDB records.
Turning to “MGSDKIHHHHHHMFYYERVNQFDTIAVSVDSVDRRRIKGTIDLDGLKFIMYFDYTQDVDIDYDLAGMIMTMPVINYAYFAKRIKLNFPVSLSFLKLVKEFIRINNIETFINSIVRRRYEFFLKEYLPSDEEITQENAEGRTEVLADISDGDKKKLEVDDRKVIVLSSGGKESLLTFGILKEIGAVVYPVFFNESGAHWKTAKVAYDYFSSKYENVLRVWSNVDRFYSFVNRHLKILDQDEIRRKADSYPVQMFIFPVYIFSVLPYVIKYGIGNIALGDELDDPIYEEPYHGIKHYYGVYDQTNDFNLTLTSFLREYGIHCKVFSAVYPIFGTLVEKILVQRYNDLFRVQRSCHLCHYEGGDVKPCGTCSKCLGVLLFMLNAEADPTEAGYSIEHVKQLEDNVNSASMRLDPDELEYLKAKVFEGRRINSHIEGIHQLPGENSAFSLVPERFRDGVRSIVSKYSTGFYKFVGSEWVKID”, the “soluble on expression in E. coli” value is on record as “not soluble”.
For “MKVAIIGATGYGGIELIRLLEQHPYFSIASLHSFSQVGECITNVYPHFQNVLVHTLQEIDVEEIEKEAEIVFLATPAGVSAELTPKLLAVGLKVIDLSGDFRMKDPFIYEQWYKRAAAKEGVLREAVYGLSEWKRSEIQKANLIANPGCFATAALLAILPLVRSGIIEEDSIIIDAKSGVSGAGKTPTTMTHFPELYDNLRIYKVNEHQHIPEIEQMLAEWNRETKPITFSTHLIPISRGIMVTLYAKVKREMEIEQLQQLYEEAYEQSAFIRIRMQGEFPSPKEVRGSNYCDMGIAYDERTGRVTIVSVIDNMMKGAAGQAIQNANIVAGLEETTGLQHMPLYL”, the “soluble on expression in E. coli” value is listed as “not soluble”.
With “LYQHMQQQIQVQAAQNIALQDQLQQALIVPNQRIAQLEQQQLSDAKTFQELSKLATDQSQLQDRLNKLAQRSPTHWMASEAEYLVNMAGRKLWLEKDPRTATDLLKSADETIAAMNNPALLPIRKALAKDIAATTNLKSADIEGSVLALDALIGQLDKLPLNRADGEASTAEDTTISGDLNDWQSNLSKTWKALTQDFITIRHRTADVPALLAPDQQWYLVENIRHKLLQSQLALYRYDRAAYHQSLMMARQWIQSYFDVQAHQTSEAIAAIDKLATLELDPITLKAFEAKPLLLQLTSYGELTSLEEPQL”, the “soluble on expression in E. coli” value is given as “not soluble”.
Consider “MKVSKFGGSSVSNATQIKKVLNIVNSDPERKIVIVSAPGKRHDNDIKTTDLLIRLYEKVINHLDYHDKKREIIQRYDDIVKELQMDESILRTIDVTLEHYINQLKNEPKRLLDALLSCGEDFNAQLIALYNNSQGIPTKYISPKEAGIFVTDVPQEAQILDSAYSEIKKLRDYDEKLIIPGFFGVSHEGYIVTFPRGGSDITGAIISSGVRATIYENFTDVSGIYKANPNIIKDPELIEEITYREMRELSYAGFSVFHDEALQPLYKDRIPVVIKNTNRPQDKGTFIVHDREINAKNVISGISCDKDFTVINIKKYLMNRQVGFTRKILGVLEDNNISFDHMPSGIDTISIVMRSKQIQNKETKVLNEIRQKCDVDELSIEHDLAILMIVGEGMNKVIGTANKITHALAESKINLKMINQGASEISMMFGIHVDDAEKAVLSTYEFCYHGVALKNLCDKNMAGDPLEHHHHHH”, for which the “soluble on expression in E. coli” value is on record as “not soluble”.
The entry for “MGHHHHHHGSSSCAVSGASGCLPPARSRIFKIIVIGDSNVGKTCLTYRFCAGRFPDRTEATIGVDFRERAVDIDGERIKIQLWDTAGQERFRKSMVQHYYRNVHAVVFVYDMTNMASFHSLPAWIEECKQHLLANDIPRILVGNKCDLRSAIQVPTDLAQKFADTHSMPLFETSAKNPNDNDHVEAIFMTLAHKLKSH” is “soluble”.
The entry for “MSATGKVSRPIQVFTRANYFFKLIFQFKVRKYNSLTVERIFIRAMCGSDDSFDDFVPDSQEPASSRTRNQDHLDDDEVPCSQRPDAANDTMVEDLDEGDEPAHDESEDIIKILVATDIHCGYGENKANIHMDAVNTFEEVLQIATEQKVDMILLGGDLFHENNPSREVQHRVTQLLRQYCLNGNPIALEFLSDASVNFNQSVFGHVNYYDQNLNVGLPIFTIHGNHDDLSGKGLTALDLLHESGLVNLFGKHSNIQEFIVSPILLRKGETRLALYGIGSQRDDRLVRAFKNNSISFLRPNAGAEDWFNLFVLHQNRPRRAMHRSTGNFLPESLIPQFFDLLIWGHEHECKPDPQYVASSEAVGDGFYILQPGSTVATSLTPEEALQKNAFLIKIKGRKFASKPIPLQTVRPMVCDELLLDKIPPGSRPILKTDRPKHTDGRYIDEIAIEAKINEMITTAKAKRRPRQPELPLIRLKVIYDGDWLNITPANAKRIGLRYENVVANAVDMVFIKKNNKPKEGKLQTENEKNITEMADEMGQVSATNLQTIINDYFINQPLVDQMTVLKPIGIGRALEQYSAIEEGGLATSANRNFDSCLMHQIDVVRKTLKKMPLPPINDPSDLDKFRDLITKDLYDMKKADSERFKNPVADVEMEEDEDDPQYYMPPQSTSRTNYASGSEDEVANSDEEMGSSISRHSKQPTTRGRGRGARGAGASRETTRGRSNKVVSTRQIDSDGFEIINDSPSPPPASRSTRGKARGKSAPSKKRDLSFF” is “not soluble”; for “MKRSKRFAVLAQRPVNQDGLIGEWPEEGLIAMDSPFDPVSSVKVDNGLIVELDGKRRDQFDMIDRFIADYAINVERTEQAMRLEAVEIARMLVDIHVSREEIIAITTAITPAKAVEVMAQMNVVEMMMALQKMRARRTPSNQCHVTNLKDNPVQIAADAAEAGIRGFSEQETTVGIARYAPFNALALLVGSQCGRPGVLTQCSVEEATELELGMRGLTSYAETVSVYGTEAVFTDGDDTPWSKAFLASAYASRGLKMRYTSGTGSEALMGYSESKSMLYLESRCIFITKGAGVQGLQNGAVSCIGMTGAVPSGIRAVLAENLIASMLDLEVASANDQTFSHSDIRRTARTLMQMLPGTDFIFSGYSAVPNYDNMFAGSNFDAEDFDDYNILQRDLMVDGGLRPVTEAETIAIRQKAARAIQAVFRELGLPPIADEEVEAATYAHGSNEMPPRNVVEDLSAVEEMMKRNITGLDIVGALSRSGFEDIASNILNMLRQRVTGDYLQTSAILDRQFEVVSAVNDINDYQGPGTGYRISAERWAEIKNIPGVVQPDTIE” it is “soluble”.
“MYQQSSFKENLIHWFDENQREMPWRQTTNPYYIWLSEVMLQQTQVKTVIDYYHRFVERFPTVEVLSQASEDEVLKYWEGLGYYSRARNFHTAIKEVHDKYEGLVPKDPDQFKALKGVGPYTQAAVMSIAYNVPLATVDGNVFRVWSRLNDDYRDIKLQSTRKSYEQELLPYVTTEAGTFNQAMMELGALICTPKNPLCLFCPVQENCEAFDKGTFEKLPVKSKNVSKKVIEQSVFLIRNNQGQYLLQKRSEKLLHGMWQFPMFESEHARRKMTEKIGHDIQPVETPIFELKHQFTHLTWKIKVYAVSGAINIETLPDDMIWFDLSDRDQYTFPVPMSKIYQFING”: the “soluble on expression in E. coli” value is “not soluble”.
On to “MSLGQDIGFYLGRIDSEMDSWVADPDEALKASNKLFFLNPFQANKVGIKGKANSNPNTQLSGDTGEGKSFAAKLIHLYSSFLKVKTLYIDPKLEMEANYKRVLKEFEEQDVYPEIQKYIRSLSFATLDSTKNENLGVLDPLVFLPKKRAKGLIVSMIGELIKYDSHISFKTELSHQLSLFADRRARGEQVGTLTVLKELYNHSERQDVRDTAESLIEDIKDSILGLVFSDGKNQAVDLNARNVILGVSGLDLPQDDSIVHSDLTLQQRYSLVIMYALGEFVIQFAERDYKEHTLEIVDEAWFLETSAVGRGIFNRMKRLNRRFNNFLYFVSQEIDDSNRGKDEKTAFGSYFCFRNDDSTKVDSILRRLGVQPTEESRKWFDNLSLGQCLYRDSANRVERVTFDGLFPEVKELFKTVENDSLEGHHHHHH”, for which the “soluble on expression in E. coli” value is reported as “soluble”.
For the sequence “PCFALTSPEAGSDAGSIPDYGVVCKGEWEGKEVLGMRLTWNKRYITLAPVATVLGLAFKLRDPEGLLGDKEDLGITCALIPTDVKGVEIGNRHFPLNVPFQNGPTRGKDIFVPIDFIIGG”, the “soluble on expression in E. coli” value is on record as “not soluble”.
The entry for “MGSDKIHHHHHHMDTAKTKPFDEMFLQDEVIRPIYAEYAAWLQDVPHQQLESKRQEAELLFRRVGITFNVYGEDAGAERLIPFDVVPRILSASEWARLSDGAIQRVKALNMFLHDVYHDQEIIKAGIVPSSILANAQYRPEMFGVDVPGGVYAHIAGVDLVRTGENDFYVLEDNLRTPSGVSYMLENRKMMMRLFPELFRRYPVAPVEHYPQVLLNNLRAVAQAGVHEPTVVLLTPGAYNSAYFEHAFIAQQMGIELVEGQDLFVRNNAVYMRTTEGPKRVDVIYRRIDDDFIDPLSFRPDSMLGVPGLLSVYRNGGVTLANAVGTGVADDKDTYIYVPEMIRFYLGEEPILSNVPTYQLSKADDLKYVLDNLAELVVKEVQGSGGYGMLVGPAASKQELEDFRQRILANPANYIAQPTLALSTCPTLVETGIAPRHVDLRPFVLSGKTVSLVPGALCRVALREGSLVVNSSQGGGTKDTWILKD” is “not soluble”.
